Experimental data from patent publication US11827699 (dated 2023).
Like-named read-outs stand apart in the source and are kept apart here.

What was measured:
Assay in all cases: SPR
human FcγRIa [1] = target: T1, human FcγRIa (human, UniProt P12314)
T1 chain: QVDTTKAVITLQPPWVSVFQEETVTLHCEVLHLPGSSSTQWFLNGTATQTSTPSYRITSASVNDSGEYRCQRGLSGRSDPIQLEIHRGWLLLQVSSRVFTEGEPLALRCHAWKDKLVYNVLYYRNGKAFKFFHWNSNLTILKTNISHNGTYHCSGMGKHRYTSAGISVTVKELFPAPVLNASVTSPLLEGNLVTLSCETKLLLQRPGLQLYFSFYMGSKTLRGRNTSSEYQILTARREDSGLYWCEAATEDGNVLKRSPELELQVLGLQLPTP

human FcγRIIa R131 [2] = target: T2, human FcγRIIa R131 (human, UniProt P12318)
T2 chain: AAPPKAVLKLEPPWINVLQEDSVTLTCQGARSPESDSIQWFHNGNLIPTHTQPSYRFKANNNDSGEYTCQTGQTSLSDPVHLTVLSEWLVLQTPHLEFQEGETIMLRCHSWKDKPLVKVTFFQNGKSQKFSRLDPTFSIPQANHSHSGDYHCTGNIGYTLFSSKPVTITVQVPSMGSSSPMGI

human FcγRIIb = target: T3, human FcγRIIb (human, UniProt P31994)
T3 chain: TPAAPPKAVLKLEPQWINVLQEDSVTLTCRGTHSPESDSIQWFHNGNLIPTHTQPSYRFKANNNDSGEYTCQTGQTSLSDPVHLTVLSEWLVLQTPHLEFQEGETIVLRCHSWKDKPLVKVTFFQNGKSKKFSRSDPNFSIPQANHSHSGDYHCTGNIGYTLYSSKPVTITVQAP

human FcγRIIa R131 [3] = target: T2, human FcγRIIa R131
human FcγRIIa H131 = target: T4, human FcγRIIa H131 (human, UniProt P12318)
T4 chain: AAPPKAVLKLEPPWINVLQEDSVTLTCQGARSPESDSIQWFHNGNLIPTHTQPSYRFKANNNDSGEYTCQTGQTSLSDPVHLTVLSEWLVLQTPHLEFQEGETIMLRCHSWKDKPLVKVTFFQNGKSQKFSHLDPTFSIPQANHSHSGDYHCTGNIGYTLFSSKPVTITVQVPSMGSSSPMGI

human FcγRIIIa V158 = human FcγRIIIa V158 (human, UniProt P08637)
human FcγRIIIa V158, sequence (P08637 17-208 F176V): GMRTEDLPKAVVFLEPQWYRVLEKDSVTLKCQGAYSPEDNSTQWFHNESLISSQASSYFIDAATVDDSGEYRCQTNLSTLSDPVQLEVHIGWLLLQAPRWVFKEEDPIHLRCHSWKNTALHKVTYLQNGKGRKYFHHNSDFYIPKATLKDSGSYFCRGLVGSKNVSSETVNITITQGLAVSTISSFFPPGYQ

human FcγRIa [4] = target: T1, human FcγRIa

Kd (human FcγRIa [1]) [nM]	Kd (human FcγRIIa R131 [2]) [nM]	further results	Binder
20			IL6R-BP220 (antibody) chain 1: QVQLQESGPGLVKPSETLSLTCAVSGHSISHDHAWSWVRQPPGEGLEWIGFISYSGITNYNPSLQGRVTISRDNSKNTLYLQMNSLRAEDTAVYYCARSLARTTAMDYWGEGTLVTVSSASTKGPSVFPLAPSSKSTSGGTAALGCLVKDYFPEPVTVSWNSGALTSGVHTFPAVLQSSGLYSLSSVVTVPSSSLGTQTYICNVNHKPSNTKVDKKVEPKSCDKTHTCPPCPAPDLLGDDSVFLFPPKPKDTLMISRTPEVTCVVVDVSDEDGEVKFNWYVDGVEVHNAKTKPREEQDNSTYRVVSVLTVLHQDWLNGKEYKCKVSNKALPKPIEKTISKAKGQPREPQVYTLPPSRDELTKNQVSLTCLVKGFYPSDIAVEWESNGQPENNYKTTPPVLDSDGSFFLYSKLTVDKSRWQQGNVFSCSVMHEALHNHYTQESLSLSP chain 2: not shown
	2100		IL6R-BP517 (antibody) chain 1: QVQLQESGPGLVKPSETLSLTCAVSGHSISHDHAWSWVRQPPGEGLEWIGFISYSGITNYNPSLQGRVTISRDNSKNTLYLQMNSLRAEDTAVYYCARSLARTTAMDYWGEGTLVTVSSASTKGPSVFPLAPSSKSTSGGTAALGCLVKDYFPEPVTVSWNSGALTSGVHTFPAVLQSSGLYSLSSVVTVPSSSLGTQTYICNVNHKPSNTKVDKKVEPKSCDKTHTCPPCPAPDLLGDDSVFLFPPKPKDTLMISRTPEVTCVVVDVSEEDGIVKFNWYVDGVEVHNAKTKPREEQYNSTYRVVSVLTVLHQDWLNGKEYKCKVSNKALPAPIEKTISKAKGQPREPQVYTLPPSRDELTKNQVSLTCLVKGFYPSDIAVEWESNGQPENNYKTTPPVLDSDGSFFLYSKLTVDKSRWQQGNVFSCSVMHEALHNHYTQESLSLSP chain 2: not shown
7			IL6R-BP249 (antibody) chain 1: QVQLQESGPGLVKPSETLSLTCAVSGHSISHDHAWSWVRQPPGEGLEWIGFISYSGITNYNPSLQGRVTISRDNSKNTLYLQMNSLRAEDTAVYYCARSLARTTAMDYWGEGTLVTVSSASTKGPSVFPLAPSSKSTSGGTAALGCLVKDYFPEPVTVSWNSGALTSGVHTFPAVLQSSGLYSLSSVVTVPSSSLGTQTYICNVNHKPSNTKVDKKVEPKSCDKTHTCPPCPAPDYLGDDSVFLFPPKPKDTLMISRTPEVTCVVVDVSDEDGEVKFNWYVDGVEVHNAKTKPREEQDNSTYRVVSVLTVLHQDWLNGKEYKCKVSNKALPRPIEKTISKAKGQPREPQVYTLPPSRDELTKNQVSLTCLVKGFYPSDIAVEWESNGQPENNYKTTPPVLDSDGSFFLYSKLTVDKSRWQQGNVFSCSVMHEALHNHYTQESLSLSP chain 2: not shown
	30000		IL6R-BP514 (antibody) chain 1: QVQLQESGPGLVKPSETLSLTCAVSGHSISHDHAWSWVRQPPGEGLEWIGFISYSGITNYNPSLQGRVTISRDNSKNTLYLQMNSLRAEDTAVYYCARSLARTTAMDYWGEGTLVTVSSASTKGPSVFPLAPSSKSTSGGTAALGCLVKDYFPEPVTVSWNSGALTSGVHTFPAVLQSSGLYSLSSVVTVPSSSLGTQTYICNVNHKPSNTKVDKKVEPKSCDKTHTCPPCPAPDLLGDDSVFLFPPKPKDTLMISRTPEVTCVVVDVSEEDGFVKFNWYVDGVEVHNAKTKPREEQYNSTYRVVSVLTVLHQDWLNGKEYKCKVSNKALPAPIEKTISKAKGQPREPQVYTLPPSRDELTKNQVSLTCLVKGFYPSDIAVEWESNGQPENNYKTTPPVLDSDGSFFLYSKLTVDKSRWQQGNVFSCSVMHEALHNHYTQESLSLSP chain 2: not shown
8			IL6R-BP246 (antibody) chain 1: QVQLQESGPGLVKPSETLSLTCAVSGHSISHDHAWSWVRQPPGEGLEWIGFISYSGITNYNPSLQGRVTISRDNSKNTLYLQMNSLRAEDTAVYYCARSLARTTAMDYWGEGTLVTVSSASTKGPSVFPLAPSSKSTSGGTAALGCLVKDYFPEPVTVSWNSGALTSGVHTFPAVLQSSGLYSLSSVVTVPSSSLGTQTYICNVNHKPSNTKVDKKVEPKSCDKTHTCPPCPAPDLLGDDSVFLFPPKPKDTLMISRTPEVTCVVVDVQDEDGEVKFNWYVDGVEVHNAKTKPREEQDNSTYRVVSVLTVLHQDWLNGKEYKCKVSNAALPRPIEKTISKAKGQPREPQVYTLPPSRDELTKNQVSLTCLVKGFYPSDIAVEWESNGQPENNYKTTPPVLDSDGSFFLYSKLTVDKSRWQQGNVFSCSVMHEALHNHYTQESLSLSP chain 2: not shown
3			IL6R-BP243 (antibody) chain 1: QVQLQESGPGLVKPSETLSLTCAVSGHSISHDHAWSWVRQPPGEGLEWIGFISYSGITNYNPSLQGRVTISRDNSKNTLYLQMNSLRAEDTAVYYCARSLARTTAMDYWGEGTLVTVSSASTKGPSVFPLAPSSKSTSGGTAALGCLVKDYFPEPVTVSWNSGALTSGVHTFPAVLQSSGLYSLSSVVTVPSSSLGTQTYICNVNHKPSNTKVDKKVEPKSCDKTHTCPPCPAPDYLGDDSVFLFPPKPKDTLMISRTPEVTCVVVDVSDEDGEVKFNWYVDGVEVHNAKTKPREEQYNSTYRVVSVLTVLHQDWLNGKEYKCKVSNKALPRPIEKTISKAKGQPREPQVYTLPPSRDELTKNQVSLTCLVKGFYPSDIAVEWESNGQPENNYKTTPPVLDSDGSFFLYSKLTVDKSRWQQGNVFSCSVMHEALHNHYTQESLSLSP chain 2: not shown
	700		IL6R-BP348 (antibody) chain 1: QVQLQESGPGLVKPSETLSLTCAVSGHSISHDHAWSWVRQPPGEGLEWIGFISYSGITNYNPSLQGRVTISRDNSKNTLYLQMNSLRAEDTAVYYCARSLARTTAMDYWGEGTLVTVSSASTKGPSVFPLAPSSKSTSGGTAALGCLVKDYFPEPVTVSWNSGALTSGVHTFPAVLQSSGLYSLSSVVTVPSSSLGTQTYICNVNHKPSNTKVDKKVEPKSCDKTHTCPPCPAPDLLGDDSVFLFPPKPKDTLMISRTPEVTCVVVDVAEEDGEVKFNWYVDGVEVHNAKTKPREEQYNSTYRVVSVLTVLHQDWLNGKEYKCKVSNKALPAPIEKTISKAKGQPREPQVYTLPPSRDELTKNQVSLTCLVKGFYPSDIAVEWESNGQPENNYKTTPPVLDSDGSFFLYSKLTVDKSRWQQGNVFSCSVMHEALHNHYTQESLSLSP chain 2: not shown
		Kd (human FcγRIIb): 4.1 nM; Kd (human FcγRIIa R131 [3]): 85 nM; Kd (human FcγRIIa H131): 960 nM; Kd (human FcγRIIIa V158): 28000 nM; Kd (human FcγRIa [4]): 2.1 nM	IL6R-BP497 (antibody) chain 1: QVQLQESGPGLVKPSETLSLTCAVSGHSISHDHAWSWVRQPPGEGLEWIGFISYSGITNYNPSLQGRVTISRDNSKNTLYLQMNSLRAEDTAVYYCARSLARTTAMDYWGEGTLVTVSSASTKGPSVFPLAPSSKSTSGGTAALGCLVKDYFPEPVTVSWNSGALTSGVHTFPAVLQSSGLYSLSSVVTVPSSSLGTQTYICNVNHKPSNTKVDKKVEPKSCDKTHTCPPCPAPDLLGDDSVFLFPPKPKDTLMISRTPEVTCVVIDVAEEDGEVKFNWYVDGVEVHNAKTKPREEQYNSTYRVVSVLTVLHQDWLNGKEYKCKVSNKGLPRPIEKTISKAKGQPREPQVYTLPPSRDELTKNQVSLTCLVKGFYPSDIAVEWESNGQPENNYKTTPPVLDSDGSFFLYSKLTVDKSRWQQGNVFSCSVMHEALHNHYTQESLSLSP chain 2: not shown
70			IL6R-BP233 (antibody) chain 1: QVQLQESGPGLVKPSETLSLTCAVSGHSISHDHAWSWVRQPPGEGLEWIGFISYSGITNYNPSLQGRVTISRDNSKNTLYLQMNSLRAEDTAVYYCARSLARTTAMDYWGEGTLVTVSSASTKGPSVFPLAPSSKSTSGGTAALGCLVKDYFPEPVTVSWNSGALTSGVHTFPAVLQSSGLYSLSSVVTVPSSSLGTQTYICNVNHKPSNTKVDKKVEPKSCDKTHTCPPCPAPEYLGDDSVFLFPPKPKDTLMISRTPEVTCVVVDVSHEDGEVKFNWYVDGVEVHNAKTKPREEQYNSTYRVVSVLTVLHQDWLNGKEYKCKVSNKALPKPIEKTISKAKGQPREPQVYTLPPSRDELTKNQVSLTCLVKGFYPSDIAVEWESNGQPENNYKTTPPVLDSDGSFFLYSKLTVDKSRWQQGNVFSCSVMHEALHNHYTQESLSLSP chain 2: not shown
	3000		IL6R-BP520 (antibody) chain 1: QVQLQESGPGLVKPSETLSLTCAVSGHSISHDHAWSWVRQPPGEGLEWIGFISYSGITNYNPSLQGRVTISRDNSKNTLYLQMNSLRAEDTAVYYCARSLARTTAMDYWGEGTLVTVSSASTKGPSVFPLAPSSKSTSGGTAALGCLVKDYFPEPVTVSWNSGALTSGVHTFPAVLQSSGLYSLSSVVTVPSSSLGTQTYICNVNHKPSNTKVDKKVEPKSCDKTHTCPPCPAPDLLGDDSVFLFPPKPKDTLMISRTPEVTCVVVDVSEEDGMVKFNWYVDGVEVHNAKTKPREEQYNSTYRVVSVLTVLHQDWLNGKEYKCKVSNKALPAPIEKTISKAKGQPREPQVYTLPPSRDELTKNQVSLTCLVKGFYPSDIAVEWESNGQPENNYKTTPPVLDSDGSFFLYSKLTVDKSRWQQGNVFSCSVMHEALHNHYTQESLSLSP chain 2: not shown
